{
  "source": "patent US20260256870A1",
  "about": "“SKIN COMPOSITION” (Eaderm Co., Ltd., priority 2019, published 2026)",
  "molecules": {"B1": {"name": "Epidermal Growth Factor (EGF): growth factor (protein, UniProt P01133 23-1207, looked up)", "Pro-epidermal growth factor": "PQHWSCPEGTLAGNGNSTCVGPAPFLIFSHGNSIFRIDTEGTNYEQLVVDAGVSVIMDFHYNEKRIYWVDLERQLLQRVFLNGSRQERVCNIEKNVSGMAINWINEEVIWSNQQEGIITVTDMKGNNSHILLSALKYPANVAVDPVERFIFWSSEVAGSLYRADLDGVGVKALLETSEKITAVSLDVLDKRLFWIQYNREGSNSLICSCDYDGGSVHISKHPTQHNLFAMSLFGDRIFYSTWKMKTIWIANKHTGKDMVRINLHSSFVPLGELKVVHPLAQPKAEDDTWEPEQKLCKLRKGNCSSTVCGQDLQSHLCMCAEGYALSRDRKYCEDVNECAFWNHGCTLGCKNTPGSYYCTCPVGFVLLPDGKRCHQLVSCPRNVSECSHDCVLTSEGPLCFCPEGSVLERDGKTCSGCSSPDNGGCSQLCVPLSPVSWECDCFPGYDLQLDEKSCAASGPQPFLLFANSQDIRHMHFDGTDYGTLLSQQMGMVYALDHDPVENKIYFAHTALKWIERANMDGSQRERLIEEGVDVPEGLAVDWIGRRFYWTDRGKSLIGRSDLNGKRSKIITKENISQPRGIAVHPMAKRLFWTDTGINPRIESSSLQGLGRLVIASSDLIWPSGITIDFLTDKLYWCDAKQSVIEMANLDGSKRRRLTQNDVGHPFAVAVFEDYVWFSDWAMPSVMRVNKRTGKDRVRLQGSMLKPSSLVVVHPLAKPGADPCLYQNGGCEHICKKRLGTAWCSCREGFMKASDGKTCLALDGHQLLAGGEVDLKNQVTPLDILSKTRVSEDNITESQHMLVAEIMVSDQDDCAPVGCSMYARCISEGEDATCQCLKGFAGDGKLCSDIDECEMGVPVCPPASSKCINTEGGYVCRCSEGYQGDGIHCLDIDECQLGEHSCGENASCTNTEGGYTCMCAGRLSEPGLICPDSTPPPHLREDDHHYSVRNSDSECPLSHDGYCLHDGVCMYIEALDKYACNCVVGYIGERCQYRDLKWWELRHAGHGQQQKVIVVAVCVVVLVMLLLLSLWGAHYYRTQKLLSKNPKNPYEESSRDVRSRRPADTEDGMSSCPQPWFVVIKEHQDLKNGGQPVAGEDGQAADGSMQPTSWRQEPQLCGMGTEQGCWIPVSSDKGSCPQVMERSFHMPSYGTQTLEGGVEKPHSLLSANPLWQQRALDPPHQMELTQ", "modifications": "Pro-epidermal growth factor"}},
  "key": {"COL17A1": {"tested_on": "COL17A1", "test": "COL17A1 expression in human epidermal keratinocytes by high content imaging (HCS)", "format": "cell-based", "details": "Table 1; human epidermal keratinocytes, 48 hours after addition of reagents, fluorescence intensity per cell", "method": "The present inventors further searched for substances that induce or maintain the expression of COL17A1. Human epidermal keratinocytes were seeded in 384-well plates, cultured for 48 hours after addition of reagents, immunostained with an anti-COL17A1 antibody and a fluorescently labeled secondary antibody, and then the fluorescence intensity per cell was detected using a high content imaging system (HCS: High Content Screening). In addition to cell counting with DAPI, the expression level of COL17A1 was quantified."}, "[1]": {"tested_on": "human epidermal keratinocytes", "test": "Colony formation assay using human epidermal keratinocytes", "format": "cell-based", "details": "Table 1", "excerpt": "To test whether COL17A1-mediated SCD maintains clonal proliferation of epidermal stem cell clones, the present inventors used a colony formation assay, which is an in vitro assay said to be the gold standard for assessing the self-renewal ability of epidermal stem cells, including cells in the tail epidermis."}},
  "data": [
    {"molecule": "B1", "values": [
      {"measurement": "COL17A1 expression level (control ratio)", "setting": "COL17A1", "value": "⊚ (one double circle (⊚) represents a 1.2-fold or greater increase)"},
      {"measurement": "Colony area (control ratio)", "setting": "[1]", "value": "⊚⊚ (Two double circles (⊚⊚) in the control ratio of the colony number or colony area indicates an increase of 1.2-fold or more)"},
      {"measurement": "Colony number (control ratio)", "setting": "[1]", "value": "⊚⊚ (Two double circles (⊚⊚) in the control ratio of the colony number or colony area indicates an increase of 1.2-fold or more)"}
    ]}
  ]
}
